Laboratory results: US20240343771A1

Columns and labels:
[1] = biological target: IL-12 receptor (human IL-12Rb1 and IL-12Rb2 on IL-12 bioassay cells) (human) (UniProt P42701)
[2] = biological target: IL-12 receptor (human IL-12Rb1 and IL-12Rb2 on IL-12 bioassay cells) (human) (UniProt P42701); remark: listed apart in the source
[3] = biological target: IL-12 receptor (human IL-12Rb1 and IL-12Rb2 on IL-12 bioassay cells) (human) (UniProt P42701); remark: listed apart in the source
[4] = biological target: IL-12 receptor (human IL-12Rb1 and IL-12Rb2 on IL-12 bioassay cells) (human) (UniProt P42701); remark: listed apart in the source

Chain of IL-12 receptor (human IL-12Rb1 and IL-12Rb2 on IL-12 bioassay cells) (human) (Q99665 24-862, chain 2 of 2, other chains not shown): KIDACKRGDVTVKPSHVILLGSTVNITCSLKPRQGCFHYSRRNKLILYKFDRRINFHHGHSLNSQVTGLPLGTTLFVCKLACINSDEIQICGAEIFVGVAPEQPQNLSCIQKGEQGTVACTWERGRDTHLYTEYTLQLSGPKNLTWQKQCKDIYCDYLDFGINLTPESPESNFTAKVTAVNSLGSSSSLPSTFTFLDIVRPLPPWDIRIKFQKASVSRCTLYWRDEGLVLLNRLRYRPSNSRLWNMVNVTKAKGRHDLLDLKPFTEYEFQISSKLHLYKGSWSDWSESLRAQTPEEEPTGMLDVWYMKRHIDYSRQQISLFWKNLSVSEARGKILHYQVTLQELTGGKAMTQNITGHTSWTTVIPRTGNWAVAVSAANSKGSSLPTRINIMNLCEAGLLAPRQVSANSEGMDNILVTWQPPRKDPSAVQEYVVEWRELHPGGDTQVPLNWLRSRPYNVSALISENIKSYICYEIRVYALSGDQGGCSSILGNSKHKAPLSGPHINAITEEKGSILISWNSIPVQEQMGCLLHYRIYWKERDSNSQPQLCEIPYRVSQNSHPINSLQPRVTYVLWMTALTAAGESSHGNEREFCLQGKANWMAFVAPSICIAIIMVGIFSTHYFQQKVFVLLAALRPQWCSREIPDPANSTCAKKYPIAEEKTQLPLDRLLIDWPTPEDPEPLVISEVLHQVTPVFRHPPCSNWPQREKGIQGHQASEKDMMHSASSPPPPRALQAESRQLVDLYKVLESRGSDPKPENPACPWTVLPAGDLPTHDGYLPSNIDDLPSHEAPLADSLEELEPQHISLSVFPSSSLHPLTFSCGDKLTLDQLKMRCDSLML
Chain of hIL12 + MTSP1 (P29459 23-219): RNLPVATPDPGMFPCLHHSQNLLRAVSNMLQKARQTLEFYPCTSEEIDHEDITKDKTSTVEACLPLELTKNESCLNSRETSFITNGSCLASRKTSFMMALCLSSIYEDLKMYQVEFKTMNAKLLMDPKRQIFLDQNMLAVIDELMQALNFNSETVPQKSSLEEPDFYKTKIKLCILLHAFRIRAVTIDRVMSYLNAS
Chain of hIL12 + MTSP1 (P29460 23-328): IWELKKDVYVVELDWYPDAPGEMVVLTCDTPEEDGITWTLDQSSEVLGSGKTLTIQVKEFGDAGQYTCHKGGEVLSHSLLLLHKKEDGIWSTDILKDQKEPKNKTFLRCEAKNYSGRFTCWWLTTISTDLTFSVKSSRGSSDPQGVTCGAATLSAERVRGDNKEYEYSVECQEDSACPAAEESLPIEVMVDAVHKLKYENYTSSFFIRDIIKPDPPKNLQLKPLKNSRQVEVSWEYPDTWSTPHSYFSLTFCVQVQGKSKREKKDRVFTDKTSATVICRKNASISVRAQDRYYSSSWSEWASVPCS

hIL12_His tag (ligand)
EC50 (read off the curve) (luciferase reporter in IL-12 bioassay cells expressing human IL-12Rb1, IL-12Rb2 and STAT4) [all three graphs] [1]: 200 pM
EC50 (read off the curve) (luciferase reporter in IL-12 bioassay cells expressing human IL-12Rb1, IL-12Rb2 and STAT4) [2]: 200 pM
EC50 (read off the curve) (luciferase reporter in IL-12 bioassay cells expressing human IL-12Rb1, IL-12Rb2 and STAT4) [left graph] [3]: 100 pM

hIL12 + MTSP1 (from UniProt P29459;P29460) (ligand)
EC50 (read off the curve) (luciferase activity, AU; the assay is not described for this figure) [4]: 300 pM

hIL12_His tag + MTSP1 (ligand)
EC50 (read off the curve) (luciferase reporter in IL-12 bioassay cells expressing human IL-12Rb1, IL-12Rb2 and STAT4) [all three graphs] [1]: 200 pM
EC50 (read off the curve) (luciferase reporter in IL-12 bioassay cells expressing human IL-12Rb1, IL-12Rb2 and STAT4) [2]: 200 pM
